For two substances, activity (mean SMALR native score) results are on record in US20230076063.

Common to all, as to assay: cell_activity
For data set [1], the system named is MamA E270A E270A (Mycobacterium tuberculosis). The conditions noted are these: SMRT sequencing kinetics; partial stochastic methylation.
Data set [2] has as its system MamA G152S G152S (Mycobacterium tuberculosis). The conditions noted are these: SMRT sequencing kinetics; partial stochastic methylation.
Data set [3] has as its system MamA W136R W136R (Mycobacterium tuberculosis). The conditions noted are these: SMRT sequencing kinetics; methylation knockout, binding itself not measured.
In data set [4] the test system is MamB K1033T K1033T (Mycobacterium tuberculosis). The conditions noted are these: SMRT sequencing kinetics; single isolate.

As for “CTGGAG (double strand) [MamA target motif sites]”, the activity (mean SMALR native score) is 0.0558 in data set [1], 0.766 in data set [2] and -0.107 in data set [3].
On to MamB target motif sites, for which the activity (mean SMALR native score) in data set [4] was 0.299.
